# Measurements: patent US20170218057A1
# Key:
# NTSR1 = NTSR1 (UniProt P30989); assay: cell-based or functional assay
# [1] = molecular target: p12026-BSA-conjugate (human); assay: ELISA, plate coated with p12026-BSA-conjugate 4 µg/ml; serum dilution 1:100
# [2] = molecular target: p12026-BSA-conjugate (human); assay: ELISA, plate coated with p12026-BSA-conjugate 4 µg/ml; serum dilution 1:12800
# [3] = molecular target: p12026-BSA-conjugate (human); assay: ELISA, plate coated with p12026-BSA-conjugate 4 µg/ml; serum dilution 1:200
# [4] = molecular target: p12026-BSA-conjugate (human); assay: ELISA, plate coated with p12026-BSA-conjugate 4 µg/ml; serum dilution 1:800
# [5] = molecular target: p12026-BSA-conjugate (human); assay: ELISA, plate coated with p12026-BSA-conjugate 4 µg/ml; serum dilution 1:1600
# [6] = molecular target: p12026-BSA-conjugate (human); assay: ELISA, plate coated with p12026-BSA-conjugate 4 µg/ml; serum dilution 1:6400
# [7] = molecular target: p12026-BSA-conjugate (human); assay: ELISA, plate coated with p12026-BSA-conjugate 4 µg/ml; serum dilution 1:400
# [8] = molecular target: p12026-BSA-conjugate (human); assay: ELISA, plate coated with p12026-BSA-conjugate 4 µg/ml; serum dilution 1:3200
# Chain of p12026-BSA-conjugate (human) (P02769 25-607 limits assumed): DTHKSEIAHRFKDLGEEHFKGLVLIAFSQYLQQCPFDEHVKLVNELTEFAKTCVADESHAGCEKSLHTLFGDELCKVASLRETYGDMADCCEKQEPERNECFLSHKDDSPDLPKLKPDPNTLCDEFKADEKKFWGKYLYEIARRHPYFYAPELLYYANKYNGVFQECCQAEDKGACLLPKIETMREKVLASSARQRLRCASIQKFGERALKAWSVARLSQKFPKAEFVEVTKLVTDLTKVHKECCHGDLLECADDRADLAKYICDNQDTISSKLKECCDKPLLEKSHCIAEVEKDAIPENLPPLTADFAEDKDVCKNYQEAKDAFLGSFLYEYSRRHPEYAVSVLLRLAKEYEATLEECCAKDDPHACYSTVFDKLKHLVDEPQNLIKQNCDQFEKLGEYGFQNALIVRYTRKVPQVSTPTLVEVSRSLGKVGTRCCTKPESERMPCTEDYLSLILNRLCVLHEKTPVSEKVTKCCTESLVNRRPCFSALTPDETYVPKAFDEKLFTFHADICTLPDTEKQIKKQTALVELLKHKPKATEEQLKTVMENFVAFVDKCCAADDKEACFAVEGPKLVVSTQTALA
# Chain of NTSR1 (P30989 whole entry): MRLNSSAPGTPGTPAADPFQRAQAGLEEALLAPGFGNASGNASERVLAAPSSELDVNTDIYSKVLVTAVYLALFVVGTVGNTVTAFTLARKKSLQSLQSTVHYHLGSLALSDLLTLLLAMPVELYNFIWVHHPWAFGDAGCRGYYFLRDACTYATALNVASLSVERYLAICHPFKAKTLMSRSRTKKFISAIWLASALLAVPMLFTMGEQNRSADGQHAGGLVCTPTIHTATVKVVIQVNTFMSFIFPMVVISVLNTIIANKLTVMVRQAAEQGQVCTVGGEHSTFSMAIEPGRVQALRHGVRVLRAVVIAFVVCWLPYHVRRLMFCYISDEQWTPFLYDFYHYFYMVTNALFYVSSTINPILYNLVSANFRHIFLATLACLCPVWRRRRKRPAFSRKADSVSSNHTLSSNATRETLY
substance,measurement,setting,value
NTS released or expressed by cancer cells (from UniProt P30990 24-163) (ligand),reduction of cell growth of CHO NTSR1 overexpressing cells,NTSR1,60%
normal serum (antibody),OD405nm,[1],0.032 OD405nm
same,OD405nm,[2],0.004 OD405nm
same,OD405nm,[3],0.016 OD405nm
same,OD405nm,[4],0.012 OD405nm
same,OD405nm,[5],0.008 OD405nm
same,OD405nm,[6],0.009 OD405nm
same,OD405nm,[7],0.016 OD405nm
same,OD405nm,[8],0.01 OD405nm
